We go through two molecules from patent publication US9096835B2, “DNA polymerase” (Medical Research Council, priority 2003, dated 2015).

Test [1] concerns 215 bp fragment from the cytochrome B gene in the mitochondrial genome. Put plainly: Ancient DNA PCR, cave hyena samples. Particulars: on two separate occasions. It is filed as biochemical, cave hyena (Crocuta spelaea). The text has this:
FIG. 12. Several samples of cave hyena (Crocuta spelaea) were extracted and analysed. The seven samples were from Teufelslucke cave (Austria, 40 000 years old), Aufhausener Höhle (Germany, no date determined (2 samples)); Irpfelhöhle (Germany, no date determined); Kiskevelyi ([…] 48 500 years old); Miskolc III (Hungary, 44 000 years old); Mala ladnica (Slovakia, no date determined). The target was a 215 bp fragment from the cytochrome B gene in the mitochondrial genome. The amplification was only successful in the presence of sspDNA.
Several samples of cave hyena (Crocuta spelaea) were extracted and analysed. […] These samples were chosen to test the efficacy of the expanded substrate spectrum polymerases.
Therefore, M1 was blended with a commercial preparation of Taq (SuperTaq (HT biotechnology Ltd)) in a ratio of 1 unit to 10 and compared to Taq in the absence of M1. It was hoped that if M1 could bypass the blocking lesions, then the wild type Taq would amplify the resulting translesion synthesis product.

Test [2] concerns template containing 5-Nitroindole. Put plainly: Primer extension opposite 5-nitroindole. Particulars: 50° C., cell lysate, identical conditions as 4D11 and 5D4; data not shown. It is filed as biochemical. On the procedure: 50 pmol of ^32P-labelled primer and 100 pmol of template in a volume of 44 μl were annealed in 1× Taq buffer. 4D11 or 5D4 polymerase as cell lysate (6 μl) was added and reactions were incubated at 50° C. for 15 minutes followed by addition of one dNTP (1 μl in total volume of 50 μl, final dNTP concentration 40 μM). 8 μl samples were taken at various time points and added to 8 μl stop solution (7M urea, 100 mM EDTA containing xylene cyanol F). At the end of the time course the remaining 3 dNTPs were added (final concentration each dNTP 40 μM) and reactions incubated at 50° C. for a further 30 minutes. Reaction samples were electrophoretically separated using 20% polyacrylamide gels at 25 W for 4 hours. The resultant gels were dried and scanned using a phosphorimager (Molecular Dynamics). Data was processed using the program ImageQuant (Molecular Dynamics).

Test [3] in a line: Incorporation and extension of 5-nitroindole-5′-triphosphate. It is filed as biochemical. The following applies: 50° C., identical conditions as 4D11 and 5D4; data not shown. On the procedure: 50 pmol of ^32P-labelled primer and 100 pmol of template in a volume of 44 μl were annealed in 1× Taq buffer. 4D11 or 5D4 polymerase as cell lysate (6 μl) was added and reactions were incubated at 50° C. for 15 minutes followed by addition of d5NITP (1 μl in total volume of 50 µL final dNTP concentration 40 μM). 8 μl samples were taken at various time points and added to 8 μl stop solution (7M urea, 100 mM EDTA containing xylene cyanol F). At the end of the time course the 4 native dNTPs were added (final concentration each dNTP 40 μM) and reactions incubated at 50° C. for a further 30 minutes.

Turning to “SuperTaq: commercial preparation of Taq (HT biotechnology Ltd)”, the “amplification of previously un-amplifiable cave hyena DNA” value in test [1] is “did not”.

B1: Tth: Thermus thermophilus (Tth) wild-type polymerase (protein, UniProt P52028 1-834, looked up)
DNA polymerase I, thermostable: MEAMLPLFEPKGRVLLVDGHHLAYRTFFALKGLTTSRGEPVQAVYGFAKSLLKALKEDGYKAVFVVFDAKAPSFRHEAYEAYKAGRAPTPEDFPRQLALIKELVDLLGFTRLEVPGYEADDVLATLAKKAEKEGYEVRILTADRDLYQLVSDRVAVLHPEGHLITPEWLWEKYGLRPEQWVDFRALVGDPSDNLPGVKGIGEKTALKLLKEWGSLENLLKNLDRVKPENVREKIKAHLEDLRLSLELSRVRTDLPLEVDLAQGREPDREGLRAFLERLEFGSLLHEFGLLEAPAPLEEAPWPPPEGAFVGFVLSRPEPMWAELKALAACRDGRVHRAADPLAGLKDLKEVRGLLAKDLAVLASREGLDLVPGDDPMLLAYLLDPSNTTPEGVARRYGGEWTEDAAHRALLSERLHRNLLKRLEGEEKLLWLYHEVEKPLSRVLAHMEATGVRLDVAYLQALSLELAEEIRRLEEEVFRLAGHPFNLNSRDQLERVLFDELRLPALGKTQKTGKRSTSAAVLEALREAHPIVEKILQHRELTKLKNTYVDPLPSLVHPRTGRLHTRFNQTATATGRLSSSDPNLQNIPVRTPLGQRIRRAFVAEAGWALVALDYSQIELRVLAHLSGDENLIRVFQEGKDIHTQTASWMFGVPPEAVDPLMRRAAKTVNFGVLYGMSAHRLSQELAIPYEEAVAFIERYFQSFPKVRAWIEKTLEEGRKRGYVETLFGRRRYVPDLNARVKSVREAAERMAFNMPVQGTAADLMKLAMVKLFPRLREMGARMLLQVHDELLLEAPQARAEEVAALAKEAMEKAYPLAVPLEVEVGMGEDWLSAKG
For B1, the “extension opposite 5-nitroindole” value in test [2] is listed as “almost undetectable extension reactions”. In addition, the “incorporation and extension of d5NITP” value in test [3] is reported as “almost undetectable extension reactions”.
